This is an account of results in patent US20240352438A1, “MEANS AND METHODS FOR DETOXIFYING OCHRATOXIN A” (DSM Austria GmbH, priority 2021, published 2024).

A short description of this assay: OTA detoxification activity assay (specific activity, fluorescence reduction ex/em 390/450 nm). It is filed as biochemical. To be noted: SEQ ID NO: 1 = 100%. On the procedure:
To determine the specific activity of recombinant target polypeptides produced e.g. as described in Example 2 above in units per liter (U/L), ochratoxin A (OTA) detoxification activity assays were performed. One unit is defined as the amount of enzyme necessary for degradation of 1 μmol or OTA in 1 min when using a starting OTA concentration of […].
OTA detoxification activity assays were set up in a final volume of the reaction mixture of […], containing the recombinant enzyme preparation (preferably diluted to yield a volumetric activity of 1-10 mU/L), and 200 ng/mL OTA in 100 mM sodium phosphate buffer.
Specific activities were determined at pH 6.0 and pH 7.5. As soon as all components of the reaction mixture were mixed, OTA degradation was followed at 37° C. on a fluorescence spectrophotometer (BioTek Synergy H1 MFD Multimode microplate reader) by following the reduction in fluorescence at ex/em 390 nm/450 nm. For work performed at pH 6.0 and 7.5, a 100 mM sodium phosphate buffer was used.
For calculation of the specific activity, the initial linear part of the recorded fluorescence reduction curve was used. In addition to the fluorescence-based method described above, OTA degradation was also determined by using the HPLC-MS method as described by Dellafiora et al. 2020, Toxins 12, 258, essentially confirming the fluorescence-based results. Genes encoding either of the indicated SEQ ID NOs are expressed as described herein and the specific activities for the obtained polypeptide preparation are exemplarily shown in Table 8. Analogously, enzymatic activities using either ochratoxin B, C or TA as substrate or can be found.

B1: 171 (protein)
chain: MTTRTRILTAFLSLLAANACAADAAPAAPHTVVLRAARMFDGASGKLVDHPQLTIVGNKIVRIAQGDKAEVPAGAEVVDLGDATLLPGFIDAHVHLSGQSSDNWYGDFFDNMMRFPAEQALYGAYYARITLEAGFTSVRDVGSTDWVALGLRNAIDAGKVPGPRMLVSNYPVGSTGGHADQDPIPPHKLPLAGPLQGVCNGPEECRAAVRYQIKYGANVIKFMPSGGVLSLSDPVDAPELSQDEMNAVIGESHAWGRKVAAHAHGDKAAKMAVAAGVDSIEHGSFIEDDTLRAMKAKNVYLVPTISAVAHVEEKIGTFPPVIAEKGRAAAAHLRQTFRHAVQIGVPIALGTDAAVGAHGSNAREFRYMVENGLTPAQALLAGTANAARLLGTFDRVGTLEAGKLADVVAVPGNPIADITVTERPLFVMKDGVVVRRDAVR
modifications: exemplary polypeptide
B1: the “Specific OTA detoxification activities in % compared to the enzyme of SEQ ID NO: 1, pH 6.0” value came out at 69% and the “Specific OTA detoxification activities in % compared to the enzyme of SEQ ID NO: 1, pH 7.5” value worked out at 37%.

B2: 191 (protein)
chain: MTTRTRILTAFLSLLAANACAADAAPAAPHTVVLRAARMFDGASGKLVDHPQLTIVGNKIVRIAQGDKAEVPAGAEVVDLGDATLLPGFIDAHVHLSGQSSDNWYGDFFDNMMRFPAEQALYGAYYARITLEAGFTSVRDVGSTDWVALGLRNAIDAGKVPGPRMLVSNYAVGSTGGHADQDPIPPHKLPLAGPLQGVCNGPEECRAAVRYQIKYGANVIKFMPSGGVLSLSDPVDAPELSQDEMNAVIGESHAWGRKVAAHAHGDKAAKMAVAAGVDSIEHGSFIEDDTLRAMKAKNVYLVPTISAIAHVEEKIGTFPPVIAEKGRAAAAHLRQTFRHAVQIGVPIALGTDATVGAHGSNAREFRYMVENGLTPAQALLAGTANAARLLGTFDRVGTLEAGKLADVVAVPGNPIADITVTERPLFVMKDGVVVRRDAVR
modifications: exemplary polypeptide
Consider B2, for which the “Specific OTA detoxification activities in % compared to the enzyme of SEQ ID NO: 1, pH 6.0” value is on record as 21% and the “Specific OTA detoxification activities in % compared to the enzyme of SEQ ID NO: 1, pH 7.5” value is 28%.

B3: 204 (protein)
chain: MTTRTRILTAFLSLLAANACAADAAPAAPHTVVLRAARMFDGASGKLVDHPQLTIVGNKIVRIAQGDKAEVPAGAEVVDLGDATLLPGFIDAHVHLSGQSSDNWYGDFFDNMMRFPAEQALYGAYYARITLEAGFTSVRDVGSTDWVALGLRNAIDAGKVPGPRMLVSNYAVGSTGGHADQDPIPPHKLPLAGPLQGVCNGPEECRAAVRYQIKYGANVIKFMPSGGVLSLSDPVDAPELSQDEMNAVIGESHAWGRKVAAHAHGDKAAKMAVAAGVDSIEHGSFIEDDTLRAMKAKNVYLVPTISAIAHVEEKIGTFPPVQAEKGRAAAAHLRQTFRHAVQIGVPIALGTDAGVGAHGSNAREFRYMVENGLTPAQALLAGTANAARLLGTFDRVGTLEAGKLADVVAVPGNPIADITVTERPLFVMKDGVVVRRDAVR
modifications: exemplary polypeptide
As to B3, the “Specific OTA detoxification activities in % compared to the enzyme of SEQ ID NO: 1, pH 6.0” value is 41% and the “Specific OTA detoxification activities in % compared to the enzyme of SEQ ID NO: 1, pH 7.5” value is 24%.

B4: 172 (protein)
chain: MTTRTRILTAFLSLLAANACAADAAPAAPHTVVLRAARMFDGASGKLVDHPQLTIVGNKIVRIAQGDKAEVPAGAEVVDLGDATLLPGFIDAHVHLSGQSSDNWYGDFFDNMMRFPAEQALYGAYYARITLEAGFTSVRDVGSTDWVALGLRNAIDAGKVPGPRMLVSNYPVGSTGGHADQDPIPPHKLPLAGPLQGVCNGPEECRAAVRYQIKYGANVIKFMPSGGVLSLSDPVDAPELSQDEMNAVIGESHAWGRKVAAHAHGDKAAKMAVAAGVDSIEHGSFIEDDTLRAMKAKNVYLVPTISAIAHVEEKIGTYPPVIAEKGRAAAAHLRQTFRHAVQIGVPIALGTDAAVGAHGSNAREFRYMVENGLTPAQALLAGTANAARLLGTFDRVGTLEAGKLADVVAVPGNPIADITVTERPLFVMKDGVVVRRDAVR
modifications: exemplary polypeptide
On to B4, for which the “Specific OTA detoxification activities in % compared to the enzyme of SEQ ID NO: 1, pH 6.0” value was determined as 62% and the “Specific OTA detoxification activities in % compared to the enzyme of SEQ ID NO: 1, pH 7.5” value came out at 70%.

B5: 178 (protein)
chain: MTTRTRILTAFLSLLAANACAADAAPAAPHTVVLRAARMFDGASGKLVDHPQLTIVGNKIVRIAQGDKAEVPAGAEVVDLGDATLLPGFIDAHVHLSGQSSDNWYGDFFDNMMRFPAEQALYGAYYARITLEAGFTSVRDVGSTDWVALGLRNAIDAGKVPGPRMLVSNYAVGSTGGHADQDPIPPHKLPLAGPLQGVCNGPEECRAAVRYQIKYGANVIKFMPSGGVLSLSDPVDAPELSQDEMNAVIGESHAWGRKVAAHAHGDKAAKMAVAAGVDSIEHGSFIEDDTLRAMKAKNVYLVPTISAAAHVEEKIGTYPPVIAEKGRAAAAHLRQTFRHAVQIGVPIALGTDAAVGAHGSNAREFRYMVENGLTPAQALLAGTANAARLLGTFDRVGTLEAGKLADVVAVPGNPIADITVTERPLFVMKDGVVVRRDAVR
modifications: exemplary polypeptide
With B5, the “Specific OTA detoxification activities in % compared to the enzyme of SEQ ID NO: 1, pH 6.0” value was 85% and the “Specific OTA detoxification activities in % compared to the enzyme of SEQ ID NO: 1, pH 7.5” value amounted to 88%.

B6: 185 (protein)
chain: MTTRTRILTAFLSLLAANACAADAAPAAPHTVVLRAARMFDGASGKLVDHPQLTIVGNKIVRIAQGDKAEVPAGAEVVDLGDATLLPGFIDAHVHLSGQSSDNWYGDFFDNMMRFPAEQALYGAYYARITLEAGFTSVRDVGSTDWVALGLRNAIDAGKVPGPRMLVSNYAVGSTGGHADQDPIPPHKLPLAGPLQGVCNGPEECRAAVRYQIKYGANVIKFMPSGGVLSLSDPVDAPELSQDEMNAVIGESHAWGRKVAAHAHGDKAAKMAVAAGVDSIEHGSFIEDDTLRAMKAKNVYLVPTISAIAHVEEKIGTFPPVIAEKGRAAVAHLRQTFRHAVQIGVPIALGTDAGVGAHGSNAREFRYMVENGLTPAQALLAGTANAARLLGTFDRVGTLEAGKLADVVAVPGNPIADITVTERPLFVMKDGVVVRRDAVR
modifications: exemplary polypeptide
With B6, the “Specific OTA detoxification activities in % compared to the enzyme of SEQ ID NO: 1, pH 6.0” value came out at 32% and the “Specific OTA detoxification activities in % compared to the enzyme of SEQ ID NO: 1, pH 7.5” value is reported as 18%.

B7: 205 (protein)
chain: MTTRTRILTAFLSLLAANACAADAAPAAPHTVVLRAARMFDGASGKLVDHPQLTIVGNKIVRIAQGDKAEVPAGAEVVDLGDATLLPGFIDAHVHLSGQSSDNWYGDFFDNMMRFPAEQALYGAYYARITLEAGFTSVRDVGSTDWVALGLRNAIDAGKVPGPRMLVSNYAVGSTGGHADQDPIPPHKLPLAGPLQGVCNGPEECRAAVRYQIKYGANVIKFMPSGGVLSLSDPVDAPELSQDEMNAVIGESHAWGRKVAAHAHGDKAAKMAVAAGVDSIEHGSFIEDDTLRAMKAKNVYLVPTISAIAHVEEKIGTFPPVSAEKGRAAAAHLRQTFRHAVQIGVPIALGTDAGVGAHGSNAREFRYMVENGLTPAQALLAGTANAARLLGTFDRVGTLEAGKLADVVAVPGNPIADITVTERPLFVMKDGVVVRRDAVR
modifications: exemplary polypeptide
In the case of B7, the “Specific OTA detoxification activities in % compared to the enzyme of SEQ ID NO: 1, pH 6.0” value is 52% and the “Specific OTA detoxification activities in % compared to the enzyme of SEQ ID NO: 1, pH 7.5” value was determined as 24%.

B8: 176 (protein)
chain: MTTRTRILTAFLSLLAANACAADAAPAAPHTVVLRAARMFDGASGKLVDHPQLTIVGNKIVRIAQGDKAEVPAGAEVVDLGDATLLPGFIDAHVHLSGQSSDNWYGDFFDNMMRFPAEQALYGAYYARITLEAGFTSVRDVGSTDWVALGLRNAIDAGKVPGPRMLVSNYAVGSTGGHADQDPVPPHKLPLAGPLQGVCNGPEECRAAVRYQIKYGANVIKFMPSGGVLSLSDPVDAPELSQDEMNAVIGESHAWGRKVAAHAHGDKAAKMAVAAGVDSIEHGSFIEDDTLRAMKAKNVYLVPTISAVAHVEEKIGTFPPVIAEKGRAAAAHLRQTFRHAVQIGVPIALGTDAAVGAHGSNAREFRYMVENGLTPAQALLAGTANAARLLGTFDRVGTLEAGKLADVVAVPGNPIADITVTERPLFVMKDGVVVRRDAVR
modifications: exemplary polypeptide
For B8, the “Specific OTA detoxification activities in % compared to the enzyme of SEQ ID NO: 1, pH 6.0” value was 112% and the “Specific OTA detoxification activities in % compared to the enzyme of SEQ ID NO: 1, pH 7.5” value came to 95%.

B9: 199 (protein)
chain: MTTRTRILTAFLSLLAANACAADAAPAAPHTVVLRAARMFDGASGKLVDHPQLTIVGNKIVRIAQGDKAEVPAGAEVVDLGDATLLPGFIDAHVHLSGQSSDNLYGDFFDNMMRFPAEQALYGAYYARITLEAGFTSVRDVGSTDWVALGLRNAIDAGKVPGPRMLVSNYAVGSTGGHADQDPIPPHKLPLAGPLQGVCNGPEECRAAVRYQIKYGANVIKFMPSGGVLSLSDPVDAPELSQDEMNAVIGESHAWGRKVAAHAHGDKAAKMAVAAGVDSIEHGSFIEDDTLRAMKAKNVYLVPTISAIAHVEEKIGTFPPVIAEKGRAAAAHLRQTFRHAVQIGVPIALGTDAGVGAHGSNAREFRYMVENGLTPAQALLAGTANAARLLGTFDRVGTLEAGKLADVVAVPGNPIADITVTERPLFVMKDGVVVRRDAVR
modifications: exemplary polypeptide
For B9, the “Specific OTA detoxification activities in % compared to the enzyme of SEQ ID NO: 1, pH 6.0” value is listed as 9% and the “Specific OTA detoxification activities in % compared to the enzyme of SEQ ID NO: 1, pH 7.5” value is on record as 34%.
